Experimental data reported in PMC12102758.

Biological target: SkSGL from Sanguibacter keddieii fused with a His6-tag at the C-terminus (Group 2 / GH193 β-1,2-glucanase) (Sanguibacter keddieii)
Assay: SEC; Superdex 200 (HiLoad 16/60), 20 mM Tris-HCl (pH 7.5) in place of 50 mM Tris-HCl (pH 8.0); size by protein markers

SkSGL from Sanguibacter keddieii fused with a His6-tag at the C-terminus (Group 2 / GH193 β-1,2-glucanase) (enzyme)
stoichiometry N: 2
